In this data set the test system is K4 kissing-loop RNA reporter. Put plainly: apparent KD of K4 kissing-loop reporter; higher = weaker reporter binding. Particulars: Eterna round: R107. How it is done:
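RNA-MaP round R107: designed RNA switches with theophylline, tryptophan, arginine or FMN aptamers are transcribed on-chip within common flanks. They are titrated with a labelled K4 kissing-loop RNA reporter in RNA-MaP buffer (100 mM Tris pH 7.5, 80 mM KCl, 4 mM MgCl2), without ligand or with the indicated ligand. Median apparent KD per design.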

Where [1] appears, read: input ligand: theophylline 20 uM.
[2] abbreviates: input ligand: tryptophan 2.4 mM.
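Further: bound reporter read as fluorescence of individual clusters on recovered sequencing chips by microscopy, with normalized cluster intensities fitted with a binding model.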

As to “UAUAGAGUGACGGCCGCCACUAUUGUGAUUUAAUUGUUUGAGUGAUGUUUUGAUGUUUGAUUUUGUAGGACCGGGUUAUAUGUUA [zdzzmullin]”, the “apparent KD of K4 kissing-loop reporter” value was found to be 959 nM (input ligand: FMN 200 uM); 718 nM (input ligand: arginine 13.2 mM); 987 nM (input ligand: none); 793 nM under setting [1]; 788 nM under setting [2].

Regarding “UAUAUAGUGAUGUUAUAUGGGAAGGAGUUACGAGGACCGGUACGGCCGCCACUCGAAACGAGUGAGGAUUUGGGAGAUUGGGUUU [SSTryptA.S]”, the “apparent KD of K4 kissing-loop reporter” value runs as follows: (input ligand: FMN 200 uM) 333 nM; (input ligand: arginine 13.2 mM) 211 nM; (input ligand: none) 206 nM; under setting [1], 208 nM; under setting [2], 232 nM.

In the case of “UAUGAAGGUGGAGGAUAUUGAUUGAGCCUUGGUCAGGAGUGAUGUUCCGGGAAGCCUUGGGUUCAUCGAGAAGGCCAAGGAUAGU [#09 K4 FMN B Same State]”, the “apparent KD of K4 kissing-loop reporter” value (input ligand: FMN 200 uM) was 151 nM; the “apparent KD of K4 kissing-loop reporter” value (input ligand: arginine 13.2 mM) amounted to 209 nM; the “apparent KD of K4 kissing-loop reporter” value (input ligand: none) stood at 221 nM; the “apparent KD of K4 kissing-loop reporter” value under setting [1] came to 274 nM; the “apparent KD of K4 kissing-loop reporter” value under setting [2] stood at 232 nM.

For “UAUUAAUUGUCAGGAUAUCGUAUUCGAGUGAUGUUCGUAUAUCGACGAUAGUCGAUAUUAUCUAUACGAGAAGGGACAUUAUUUA [JR_SSFMNB_Sub006]”, the “apparent KD of K4 kissing-loop reporter” value stood at 418 nM (input ligand: FMN 200 uM); 334 nM (input ligand: arginine 13.2 mM); 477 nM (input ligand: none); 341 nM under setting [1]; 379 nM under setting [2].

As for “UAUUAAUUGUCAGGAUAUCGUAUUCGAGUGAUGUUCGUAUAUCGACGAUAGUCGAUUCUAUCUAUACGAGAAGGGACAUUAUUUA [JR_SSFMNB_Sub007]”, the “apparent KD of K4 kissing-loop reporter” value reads like this: (input ligand: FMN 200 uM) 801 nM; (input ligand: arginine 13.2 mM) 711 nM; (input ligand: none) 1090 nM; under setting [1], 804 nM; under setting [2], 755 nM.

Regarding “UAUUCUGUUCGAAAGAACGGAAUUUCGGAAGGAGCGAGAGAAAUCUCAGGUAGGUCGCCGAAAUUAUUAGAUAGUGAUGUUAUCU [Arginine A K4 4]”, the “apparent KD of K4 kissing-loop reporter” value runs as follows: (input ligand: FMN 200 uM) 162 nM; (input ligand: arginine 13.2 mM) 110 nM; (input ligand: none) 135 nM; under setting [1], 177 nM; under setting [2], 158 nM.

On to “UCAGAGAACGAAGGAUAUUGACCUGUUUUAUGCUAUGAGUGAUGUUCUUAGUAUCAGCGAGAUGAUCAAGAAGGUCGGGUUCGAC [theeternabot_sameState_KL_FMN_B_48]”, for which the “apparent KD of K4 kissing-loop reporter” value reads like this: (input ligand: FMN 200 uM) 125 nM; (input ligand: arginine 13.2 mM) 174 nM; (input ligand: none) 197 nM; under setting [1], 183 nM; under setting [2], 152 nM.

In the case of “UCAUCAUGAUGGUAGUAACCGCAUUGGGAGCGAGGACCGGUACGGCCGCCACUCGAAAUGUACAUAGCAGUAGUGAUGUUGCUGC [theeternabot_sameState_KL_Trp_A_47]”, the “apparent KD of K4 kissing-loop reporter” value by setting is: (input ligand: FMN 200 uM) 134 nM; (input ligand: arginine 13.2 mM) 125 nM; (input ligand: none) 121 nM; under setting [1], 116 nM; under setting [2], 115 nM.

As for “UCAUGAAAGACGGCCGCCACUGAUGCUGGAGUGAUGUUUCGGACAUAGUAGAGUGAUGUUCUGCGCAGGACCGGGUCGUCAUGAA [KL-SSTryp-B10 #double Kiss]”, the “apparent KD of K4 kissing-loop reporter” value (input ligand: FMN 200 uM) stood at 132 nM; the “apparent KD of K4 kissing-loop reporter” value (input ligand: arginine 13.2 mM) is 64.6 nM; the “apparent KD of K4 kissing-loop reporter” value (input ligand: none) was found to be 134 nM; the “apparent KD of K4 kissing-loop reporter” value under setting [1] stood at 130 nM; the “apparent KD of K4 kissing-loop reporter” value under setting [2] stood at 62 nM.

Consider “UCCUACGAGGUAACGUGGAUAUCUCGUUGCAAGGAUAUCUGGAAACAGAGAAGGUGCAACAUUAUCGGCAGUGAUGUUGCUGACC”, for which the “apparent KD of K4 kissing-loop reporter” value is, setting by setting: (input ligand: FMN 200 uM) 711 nM; (input ligand: arginine 13.2 mM) 242 nM; (input ligand: none) 482 nM; under setting [1], 385 nM; under setting [2], 280 nM.

Regarding “UCCUAGGCUCGAAAGAGCCUAGGUUAGACUCAGGAUAUCUGGAAACAGAGAAGGGAGCUACUAGUGAUGUUAGGAAUUCCCAUUU”, the “apparent KD of K4 kissing-loop reporter” value by setting is: (input ligand: FMN 200 uM) 102 nM; (input ligand: arginine 13.2 mM) 85.7 nM; (input ligand: none) 97.5 nM; under setting [1], 88.5 nM; under setting [2], 95.6 nM.

For the sequence “UCCUAGGUUCGUCGGCGAAAGCCCUGCGAAGGAGCGUGCGAAAGUACAGGUAGGUCGCGCAGUGAUGUUGCACCUAGGUAAUAAA [#07 K4 Arginine A Exclusion]”, the “apparent KD of K4 kissing-loop reporter” value by setting is: (input ligand: FMN 200 uM) 905 nM; (input ligand: arginine 13.2 mM) 191 nM; (input ligand: none) 319 nM; under setting [1], 892 nM; under setting [2], 375 nM.

Consider “UCCUGCAAUCCACCACGAAAGUGGAUGGAUACCAGAGUCGAAAGACUCCCUUGGCAGCCAGUGAUGUUGGAGCAGGUAAAAUAAA”, for which the “apparent KD of K4 kissing-loop reporter” value was 526 nM (input ligand: FMN 200 uM); 532 nM (input ligand: arginine 13.2 mM); 630 nM (input ligand: none); 402 nM under setting [1]; 473 nM under setting [2].

For the sequence “UCCUGCAAUCGACCACGAAAGUGGAUCGAUACCAGAGUCGAAAGACUCCCUUGGCAGCGAGUGAUGUUCGAGCAGGUAAAAUAAA [#SwitchBubble 23 #K4Late]”, the “apparent KD of K4 kissing-loop reporter” value (input ligand: FMN 200 uM) is 713 nM; the “apparent KD of K4 kissing-loop reporter” value (input ligand: arginine 13.2 mM) worked out at 461 nM; the “apparent KD of K4 kissing-loop reporter” value (input ligand: none) came to 446 nM; the “apparent KD of K4 kissing-loop reporter” value under setting [1] is 406 nM; the “apparent KD of K4 kissing-loop reporter” value under setting [2] is 486 nM.

For the sequence “UCCUGCAAUCGUCCACGAAAGUGGAUCGAUACCAGAGUCGAAAGACUCCCUUGGCAGCGAGUGAUGUUCGAAGCAGGUAAAUAAA”, the “apparent KD of K4 kissing-loop reporter” value runs as follows: (input ligand: FMN 200 uM) 487 nM; (input ligand: arginine 13.2 mM) 387 nM; (input ligand: none) 466 nM; under setting [1], 548 nM; under setting [2], 391 nM.

Take “UCCUGCUGUCUGCCACGAAAGUGGAUUGAUACCAGAGUCGAAAGACUCCCUUGGCAGCGAGUGAUGUUCGAAGCAGGUAAAUAAA [MatMod 2 - Jieux - Exclusion - Theophylline A]”: the “apparent KD of K4 kissing-loop reporter” value reads like this: (input ligand: FMN 200 uM) 210 nM; (input ligand: arginine 13.2 mM) 215 nM; (input ligand: none) 234 nM; under setting [1], 220 nM; under setting [2], 188 nM.

For “UCGAAGGAUGGAAGGAGCGCUCGUCAGUCCUGCGAGUGAUGUUCGUGGGUAAAUAGUCGCGAGCAGGUAGGUCGCCAUCUUGAGC [Laxe]”, the “apparent KD of K4 kissing-loop reporter” value was found to be 139 nM (input ligand: FMN 200 uM); 102 nM (input ligand: arginine 13.2 mM); 114 nM (input ligand: none); 126 nM under setting [1]; 109 nM under setting [2].

For “UCGAAGGAUGGAAGGAGCGCUCGUCAGUCCUGCGAGUGAUGUUCGUGGGUAAAUAUUCGCGAGCAGGUAGGUCGCCAUCUCGAAC [Erbemaa]”, the “apparent KD of K4 kissing-loop reporter” value was 149 nM (input ligand: FMN 200 uM); 103 nM (input ligand: arginine 13.2 mM); 141 nM (input ligand: none); 122 nM under setting [1]; 117 nM under setting [2].

The record behind these values is the supplement of paper PMC9170038.
